Results reported in article PMC10397247.
One block for each binder: values may come before it.

How the values were obtained:
P3mS = molecular target: T1, P3mS; test: two-hybrid library CC1; settings: mean of both orientations;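 note: natural log of median RNA to DNA barcode read ratio; higher means stronger binding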
T1 chain: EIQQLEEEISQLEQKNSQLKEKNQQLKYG

P5SC1 = molecular target: T2, P5SC1; test: two-hybrid library CC1; settings: mean of both orientations;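 note: natural log of median RNA to DNA barcode read ratio; higher means stronger binding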
T2 chain: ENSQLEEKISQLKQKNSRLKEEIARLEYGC

P4mS = molecular target: T3, P4mS; test: two-hybrid library CC1; settings: mean of both orientations;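 note: natural log of median RNA to DNA barcode read ratio; higher means stronger binding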
T3 chain: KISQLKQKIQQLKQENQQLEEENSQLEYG

P4 = molecular target: T4, P4; test: two-hybrid library CC1; settings: mean of both orientations;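 note: natural log of median RNA to DNA barcode read ratio; higher means stronger binding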
T4 chain: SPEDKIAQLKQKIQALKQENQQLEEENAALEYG

P8 = molecular target: T5, P8; test: two-hybrid library CC1; settings: mean of both orientations;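 note: natural log of median RNA to DNA barcode read ratio; higher means stronger binding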
T5 chain: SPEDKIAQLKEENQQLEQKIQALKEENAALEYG

P5 = molecular target: T6, P5; test: two-hybrid library CC1; settings: mean of both orientations;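 note: natural log of median RNA to DNA barcode read ratio; higher means stronger binding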
T6 chain: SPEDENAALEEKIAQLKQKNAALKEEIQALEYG

P7 = molecular target: T7, P7; test: two-hybrid library CC1; settings: mean of both orientations
T7 chain: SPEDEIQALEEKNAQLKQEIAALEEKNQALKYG

P6SC1 = molecular target: T8, P6SC1; test: two-hybrid library CC1; settings: mean of both orientations
T8 chain: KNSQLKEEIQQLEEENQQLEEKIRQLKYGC

P6mS = molecular target: T9, P6mS; test: two-hybrid library CC1; settings: mean of both orientations
T9 chain: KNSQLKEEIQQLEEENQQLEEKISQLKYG

P3 = molecular target: T10, P3; test: two-hybrid library CC1; settings: mean of both orientations
T10 chain: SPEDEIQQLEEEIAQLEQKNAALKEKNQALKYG

P12 = molecular target: T11, P12; test: two-hybrid library CC1; settings: mean of both orientations
T11 chain: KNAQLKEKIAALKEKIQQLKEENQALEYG

P11 = molecular target: T12, P11; test: two-hybrid library CC1; settings: mean of both orientations
T12 chain: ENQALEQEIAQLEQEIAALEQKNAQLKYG

P8mS = molecular target: T13, P8mS; test: two-hybrid library CC1; settings: mean of both orientations
T13 chain: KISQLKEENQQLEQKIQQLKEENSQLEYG

P5mS = molecular target: T14, P5mS; test: two-hybrid library CC1; settings: mean of both orientations
T14 chain: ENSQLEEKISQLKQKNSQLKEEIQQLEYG

P6SC2 = molecular target: T15, P6SC2; test: two-hybrid library CC1; settings: mean of both orientations
T15 chain: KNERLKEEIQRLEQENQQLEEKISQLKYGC

P7mS = molecular target: T16, P7mS; test: two-hybrid library CC1; settings: mean of both orientations
T16 chain: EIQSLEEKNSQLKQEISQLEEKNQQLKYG

P9 = molecular target: T17, P9; test: two-hybrid library CC1; settings: mean of both orientations
T17 chain: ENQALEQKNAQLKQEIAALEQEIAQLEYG

P5SC2 = molecular target: T18, P5SC2; test: two-hybrid library CC1; settings: mean of both orientations
T18 chain: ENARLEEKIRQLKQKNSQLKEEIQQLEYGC

P6 = molecular target: T19, P6; test: two-hybrid library CC1; settings: mean of both orientations
T19 chain: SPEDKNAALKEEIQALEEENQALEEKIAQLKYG

P10 = molecular target: T20, P10; test: two-hybrid library CC1
T20 chain: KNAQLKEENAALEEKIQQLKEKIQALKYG

4H348-bA = molecular target: T21, 4H348-bA; test: two-hybrid library CCNG1
T21 chain: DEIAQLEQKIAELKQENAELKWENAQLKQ

4H3613-bA = molecular target: T22, 4H3613-bA; test: two-hybrid library CCNG1
T22 chain: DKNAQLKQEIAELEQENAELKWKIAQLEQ

4H3162-bA = molecular target: T23, 4H3162-bA; test: two-hybrid library CCNG1
T23 chain: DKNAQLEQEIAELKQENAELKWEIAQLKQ

4H626-bA = molecular target: T24, 4H626-bA; test: two-hybrid library CCNG1
T24 chain: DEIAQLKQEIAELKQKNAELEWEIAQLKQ

4H591-bA = molecular target: T25, 4H591-bA; test: two-hybrid library CCNG1
T25 chain: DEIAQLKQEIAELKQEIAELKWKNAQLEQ

4H3462-bA = molecular target: T26, 4H3462-bA; test: two-hybrid library CCNG1
T26 chain: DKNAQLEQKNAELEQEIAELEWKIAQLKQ

P10A-bS = molecular target: T27, P10A-bS; test: two-hybrid library CCNG1
T27 chain: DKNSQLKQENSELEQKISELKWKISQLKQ

4H3628-bA = molecular target: T28, 4H3628-bA; test: two-hybrid library CCNG1
T28 chain: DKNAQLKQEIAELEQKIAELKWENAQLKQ

4H3631-bA = molecular target: T29, 4H3631-bA; test: two-hybrid library CCNG1
T29 chain: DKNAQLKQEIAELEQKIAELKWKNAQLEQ

P2bHq = molecular target: T30, P2bHq; test: two-hybrid library CCNG1
T30 chain: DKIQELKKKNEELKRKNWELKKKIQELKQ

4H3277-bA = molecular target: T31, 4H3277-bA; test: two-hybrid library CCNG1
T31 chain: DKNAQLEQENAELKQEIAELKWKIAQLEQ

4H3298-bA = molecular target: T32, 4H3298-bA; test: two-hybrid library CCNG1
T32 chain: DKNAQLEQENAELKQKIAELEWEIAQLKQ

4H906-bA = molecular target: T33, 4H906-bA; test: two-hybrid library CCNG1
T33 chain: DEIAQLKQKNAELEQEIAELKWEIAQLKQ

4H3926-bA = molecular target: T34, 4H3926-bA; test: two-hybrid library CCNG1
T34 chain: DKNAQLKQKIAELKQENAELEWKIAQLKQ

4H3175-bA = molecular target: T35, 4H3175-bA; test: two-hybrid library CCNG1
T35 chain: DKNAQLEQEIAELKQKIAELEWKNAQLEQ

4H3497-bA = molecular target: T36, 4H3497-bA; test: two-hybrid library CCNG1
T36 chain: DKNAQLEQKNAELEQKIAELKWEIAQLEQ

P8SH = molecular target: T37, P8SH; test: two-hybrid library CCNG1
T37 chain: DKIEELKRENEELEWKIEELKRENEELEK

P5SH = molecular target: T38, P5SH; test: two-hybrid library CCNG1
T38 chain: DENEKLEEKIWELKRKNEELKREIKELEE

P4SH = molecular target: T39, P4SH; test: two-hybrid library CCNG1
T39 chain: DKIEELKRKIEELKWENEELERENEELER

P7SH = molecular target: T40, P7SH; test: two-hybrid library CCNG1
T40 chain: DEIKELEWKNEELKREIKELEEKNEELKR

P6SH = molecular target: T41, P6SH; test: two-hybrid library CCNG1
T41 chain: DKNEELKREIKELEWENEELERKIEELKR

P3SH = molecular target: T42, P3SH; test: two-hybrid library CCNG1
T42 chain: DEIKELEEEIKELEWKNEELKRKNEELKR

Core_NNNI-es_KKKE = molecular target: T43, Core_NNNI-es_KKKE; test: two-hybrid library CCmax; settings: mean of both orientations
T43 chain: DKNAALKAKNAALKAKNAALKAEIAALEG

Core_NINI-es_KEKK = molecular target: T44, Core_NINI-es_KEKK; test: two-hybrid library CCmax; settings: mean of both orientations
T44 chain: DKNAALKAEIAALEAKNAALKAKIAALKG

P2p = molecular target: T45, P2p; test: two-hybrid library CCmax; settings: mean of both orientations
T45 chain: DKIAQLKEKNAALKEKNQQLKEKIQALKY

interaction score (Core_NNNI-es_KKKE): 2.16
B4: Core_NNNI-es_EEEK (peptide)
chain: DENAALEAENAALEAENAALEAKIAALKG

interaction score (Core_NINI-es_KEKK): 2.15
B5: Core_NINI-es_EKEE (peptide)
chain: DENAALEAKIAALKAENAALEAEIAALEG

More lines, now with the values behind:

B1: P10 (peptide)
chain: KNAQLKEENAALEEKIQQLKEKIQALKYG
interaction score (P3mS): -2.74
interaction score (P5SC1): -2.65
interaction score (P4mS): -2.94
interaction score (P4): -2.91
interaction score (P8): -2.83
interaction score (P5): -2.96
interaction score (P7): -0.907
interaction score (P6SC1): -2.61
interaction score (P6mS): -2.78
interaction score (P3): -1.63
interaction score (P12): -2.49
interaction score (P11): -0.938
interaction score (P8mS): -2.75
interaction score (P5mS): -2.88
interaction score (P6SC2): -2.28
interaction score (P7mS): -2.22
interaction score (P9): 0.493
interaction score (P5SC2): -2.77
interaction score (P6): -1.77
interaction score (P10): -2.46

B2: 4H3162-bA (peptide)
chain: DKNAQLEQEIAELKQENAELKWEIAQLKQ
interaction score (4H348-bA): -2.08
interaction score (4H3613-bA): 0.452
interaction score (4H3162-bA): 1.11
interaction score (4H626-bA): -0.331
interaction score (4H591-bA): -1.2
interaction score (4H3462-bA): -0.481
interaction score (P10A-bS): -0.255
interaction score (4H3628-bA): -0.274
interaction score (4H3631-bA): -1.48
interaction score (P2bHq): -0.679
interaction score (4H3277-bA): -0.654
interaction score (4H3298-bA): -0.43
interaction score (4H906-bA): -1.01
interaction score (4H3926-bA): 1.8
interaction score (4H3175-bA): -0.314
interaction score (4H3497-bA): -0.885

B3: P3SH (peptide)
chain: DEIKELEEEIKELEWKNEELKRKNEELKR
interaction score (P8SH): 0.525
interaction score (P5SH): 0.554
interaction score (P4SH): 1.95
interaction score (P7SH): -0.109
interaction score (P6SH): 0.737
interaction score (P3SH): 0.764

B6: P1p (peptide)
chain: DEIQALEEENAQLEQENAALEEEIAQLEY
interaction score (P2p): 1.64
